Test results taken from article PMC7319586.

B1: Prv2827c -1 to -71 WT (IR3-IR4, TRB1104) (dsDNA)
DNA 1: CAAGTGATTTCTTGAGTTTGAACATTGTTGCGTACAGATATAGTATAGTTTCCGGTGTGAATTCAAGTTCGAAGCTTTTGTCAGTGCGCA
DNA 2: TGCGCACTGACAAAAGCTTCGAACTTGAATTCACACCGGAAACTATACTATATCTGTACGCAACAATGTTCAAACTCAAGAAATCACTTG
B2: Prv1044 -1 to -71 WT (TRB1086) (dsDNA)
DNA 1: AACTAGGCGCGCCTAGCCTGGACGAGTCCCCGGGCCGACATTCGCCCGAGGCCTTGGCCTCCATCACCTAAAAGCTTTTGTCAGTGCGCA
DNA 2: TGCGCACTGACAAAAGCTTTTAGGTGATGGAGGCCAAGGCCTCGGGCGAATGTCGGCCCGGGGACTCGTCCAGGCTAGGCGCGCCTAGTT
B3: Prv2827c -61 to -131 WT (IR1-IR2, TRB1106) (dsDNA)
DNA 1: CAGGGCACTTGAGTTTGGAACGGGTTTCGTACTGTCACTGACCGAAGCCCGTTCCTAAATCAAGTGATTTCAAGCTTTTGTCAGTGCGCA
DNA 2: TGCGCACTGACAAAAGCTTGAAATCACTTGATTTAGGAACGGGCTTCGGTCAGTGACAGTACGAAACCCGTTCCAAACTCAAGTGCCCTG
B4: Prv1044 -61 to -131 WT (TRB1102) (dsDNA)
DNA 1: GTATCTGCGACAAGGGCAGCGTCGATGCCTCGACATGCAGAGTCGGTGTTCGCTTCACGCGAACTAGGCGCAAGCTTTTGTCAGTGCGCA
DNA 2: TGCGCACTGACAAAAGCTTGCGCCTAGTTCGCGTGAAGCGAACACCGACTCTGCATGTCGAGGCATCGACGCTGCCCTTGTCGCAGATAC
B5: PabiEi -1 to -71 WT (IR1-IR2, TRB1061) (dsDNA)
DNA 1: AAAAGAAAATGTTGCTTTTATACCACAAATATTGTAAAATTGTAGTGTAAAAGCAACAAGTGGGGGGCCGTAAGCTTTTGTCAGTGCGCA
DNA 2: TGCGCACTGACAAAAGCTTACGGCCCCCCACTTGTTGCTTTTACACTACAATTTTACAATATTTGTGGTATAAAAGCAACATTTTCTTTT

How the values were obtained:
Rv1044 = target: T1, Rv1044 (Mycobacterium tuberculosis (H37Rv), UniProt P96357 1-207); assay: EMSA; details: protein: recombinant; tags: His6-SUMO removed by SENP; untagged; chain copies: 2; label: 5' 6-FAM on strand 2; blunt
T1 sequence: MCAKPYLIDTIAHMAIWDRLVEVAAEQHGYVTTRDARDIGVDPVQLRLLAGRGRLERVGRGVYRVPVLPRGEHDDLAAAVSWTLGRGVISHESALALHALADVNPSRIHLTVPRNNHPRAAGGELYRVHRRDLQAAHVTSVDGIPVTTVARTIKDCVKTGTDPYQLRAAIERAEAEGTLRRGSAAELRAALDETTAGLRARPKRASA

Rv2827c [1] = target: T2, Rv2827c (Mycobacterium tuberculosis (H37Rv), UniProt P71625 1-295); assay: EMSA; two binding events; not co-operative; details: protein: recombinant; tags: His6-SUMO removed by SENP; untagged; label: 5' 6-FAM on strand 2; blunt
T2 sequence: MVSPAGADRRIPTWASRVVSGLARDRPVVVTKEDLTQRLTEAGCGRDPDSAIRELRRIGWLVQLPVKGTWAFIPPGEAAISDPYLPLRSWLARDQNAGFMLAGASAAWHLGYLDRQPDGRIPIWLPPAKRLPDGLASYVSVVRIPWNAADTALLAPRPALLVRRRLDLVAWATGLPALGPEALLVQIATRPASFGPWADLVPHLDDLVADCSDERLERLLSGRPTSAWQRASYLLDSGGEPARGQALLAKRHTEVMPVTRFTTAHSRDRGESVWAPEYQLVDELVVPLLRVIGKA

Rv2827c [2] = target: T2, Rv2827c; assay: EMSA; weakly negative co-operativity; details: protein: recombinant; tags: His6-SUMO removed by SENP; untagged; label: 5' 6-FAM on strand 2; blunt
Rv2827c [3] = target: T2, Rv2827c; assay: EMSA; details: protein: recombinant; tags: His6-SUMO removed by SENP; untagged; label: 5' 6-FAM on strand 2; blunt

Binder	binding result (Rv1044)	binding result (Rv2827c [1])	binding result (Rv2827c [2])	binding result (Rv2827c [3])
B1	no binding	binds	–	–
B2	no binding	–	–	–
B3	no binding	–	binds	–
B4	no binding	–	–	–
B5	–	–	–	no binding
